The text below walks through data of the nanobody polyreactivity screen of Harvey et al. (2022).

This data set can be described thus: yeast display, Sf9 membrane polyspecificity reagent, FACS + sequencing; frameworks hold sequencing errors. The method, boiled down: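 Nanobodies from a synthetic yeast display library (Saccharomyces cerevisiae BJ5465), induced 36–48 hours with galactose, were stained 1 hour at 4 °C with 10% biotinylated, detergent-solubilized Sf9 membrane reagent, enriched on streptavidin microbeads, then FACS-sorted. Anti-HA (expression) and streptavidin (reagent binding) fluorescence set low and high (top ~1%) gates. Polyreactivity labels come from the gate of origin. Genes were colony-PCR amplified, MiSeq 2 × 250 sequenced and filtered by CDR length.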
With “QVQLVESGVGLVQAGGSLRLICAATGYTFKRTAMRWSRQAPGKEREFVAAINIRGSSTYYADSVKGRFTISRDNPKNTVYLQMISLKPEDTAVYYCNAVTRYGYYWGEGTQVTVSS”, the “polyreactivity (PSR sort gate)” value is “high polyreactivity”. For “QVQLVESGVGLVQAGGSLRLSCAASGCIFIKYAMGWSRQAPGKERELVASITISSGRTYYADSVKGRFTISRDNAKNTVYLQMISLKPEDTAVYYCAAVSLWYSAYEYWGQGTQVTVSS”, the “polyreactivity (PSR sort gate)” value is recorded as “high polyreactivity”. As for “QVQLVESGVGLVQAGGSLRLSCAASGFIFHRYAMGWYRQAPGKERELVAGITSSGGSTYYADSVKGRFTISRDNAKNTVYLQMNSLKPEDTAVYYCNADSWLYRFFGYDYWGQGTQVTVSS”, the entry is “low polyreactivity”.

With “QVQLVESGVGLVQAGGSLRLSCAASGFIFYSYAMGWYRQAPGKERELVAAISRSGGITYYADSVKGRFTISRDNAKNTVYLQMNSLKPEDTAVYYCAKVGRGVSSIKDMDSWGQGTQVTVSS”, the “polyreactivity (PSR sort gate)” value is “high polyreactivity”.

“QVQLVESGVGLVQAGGSLRLSCAASGFTFRYYAMGWYRQAPGKERELVAAIRSGGRTYYADSVKGRFTISRDNAKNTVYLQMNSLKPEDTAVYYCNAKYKYSRGYDYWGQGTQVTVSS”: the “polyreactivity (PSR sort gate)” value was “high polyreactivity”. Take “QVQLVESGVGLVQAGGSLRLSCAASGGIFVPYAMGWYRQAPGKEREWVARIRSGGTTNYADSVKGRFTISRDNAKNTVYLQRNSLKPEDTAVYYCAVAAGIPQRRDYYWGQGTQVTVSS”: the “polyreactivity (PSR sort gate)” value is reported as “high polyreactivity”. Consider “QVQLVESGVGLVQAGGSLRLSCAASGGTFPYYAMGWYRQAPGKERELVAAISRSGARTYYADSVKGRFTISRDNAKNTVYLQMNSLKPEDTAVYYCATDNTYGYDYWGQGTQVTVSS”, for which the “polyreactivity (PSR sort gate)” value is “high polyreactivity”. Then “QVQLVESGVGLVQAGGSLRLSCAASGIIFDDYAMGWYRQAPGKERELVAGINESGDSTYYADSVKGRFTISRDNAKNTVYLQMNSLKPEDTAVYYCAAQLYYWWYDYWGQGTQVTVSS”, with “high polyreactivity”; and “QVQLVESGVGLVQAGGSLRLSCAASGIIFRYYAMGWYRQAPGKERELVAAISSSGVSTYYADSVKGRFTISRDNAKNTVYLQMNSLKPEDTAVYYCNAVIWVRQYFSRSSSNYWGQGTQVTVSS”, with “high polyreactivity”. For the sequence “QVQLVESGVGLVQAGGSLRLSCAASGIIFYDYVMGWYRPAPGKEWELVAAISRSGGSTYYADSVKGRFTISRDNAKNTVYLQMNSLKPEDTAVYYCAADTVVTEMEYCGQGTQVTVSS”, the “polyreactivity (PSR sort gate)” value is listed as “high polyreactivity”. For “QVQLVESGVGLVQAGGSLRLSCAASGISFLVYAMGWYRQAPGKERELVAAISADAGGTYYADSVKGRFTISRDNAKNNVYFQMNSLKPEDTAVYYCNVDGRSDGDDYWGQGTQVTVSS”, the “polyreactivity (PSR sort gate)” value was “low polyreactivity”. As for “QVQLVESGVGLVQAGGSLRLSCAASGISFVGNAMGWYRQAPGKERELVASINSGGSTYYADSVKGRFTISRDNAKYTVYLQMNSLKPADTAVYYCAVEEDRYYYDDYDYWGQGTQVTVSS”, the “polyreactivity (PSR sort gate)” value is on record as “low polyreactivity”. With “QVQLVESGVGLVQAGGSLRLSCAASGITFDENTMGWYIQAPGKERELVAAITEIGGSTYYADSVKGRFTISRDNAKNTVYLQMNSLKPEDTAVYYCNADRWVVRFVDYEYWGQGTQVTVSS”, the “polyreactivity (PSR sort gate)” value is “low polyreactivity”. Consider “QVQLVESGVGLVQAGGSLRLSCAASGITFRSYAMGWYRQAPGKERELVAAIRSGGSTSYADSVKGRFTISRDNAKNTVYLQMNSLKPEDTAVYYCAAGGYVPLPDITFWKFGYWGQGTQVTVSS”, for which the “polyreactivity (PSR sort gate)” value is recorded as “low polyreactivity”. Turning to “QVQLVESGVGLVQAGGSLRLSCAASGLIFYKYAMGWYRQAPGKERELVAAITRGGGSTSYADSVKGRFTISRDNAKNTVYLQMNSLKPEDTAVYYCNAAPYTRALQGEFDYWGQGTQVTVSS”, the “polyreactivity (PSR sort gate)” value is “high polyreactivity”. With “QVQLVESGVGLVQAGGSLRLSCAASGLTFATNAMGWYRQAPGKERELVAAITGSGGSTNYADSVKGRFTISRDNAKNTVYLQMNSLKPEDTAVYYCAADLLWEPSRGYRGDYWGQGTQVTVSS”, the “polyreactivity (PSR sort gate)” value was “low polyreactivity”.
